From paper doi:10.1101/2022.09.06.506802 (bioRxiv, 2022)
Values joined by “and” are separate entries in the source; they are usually repeats but may differ in a detail not shown here. Equal entries are not always repeated.

Legend:
[1] = molecular target: Human Talin 1 R1R2-17b (residues 482-786 + additional 17 residues) (human) (UniProt Q9Y490); experiment: SEC
[2] = molecular target: Human Talin 1 R1R2-WT (residues 482-786) (human, UniProt Q9Y490 482-786); experiment: NMR titration

| Molecule | stoichiometry N (vinculin per talin) [1] | binding result [2] |
| --- | --- | --- |
| Vinculin domain 1 (VD1) (from UniProt P18206 1-258) (domain or fragment) | 2 and 3 |  |
| SEDIDQMFSTLLGEMDLLTQSLGVDTC [RIAM peptide (residues 4-30)] |  | binds |
